# Results published in the DeepSol protein solubility set.
# Experiment: soluble on expression in E. coli; label from the status in PepcDB or PDB records
row,Sequence,soluble on expression in E. coli
1,MATFMTEDFLLKNDIARTLYHKYAAPMPIYDFHCHLSPQEIADDRRFDNLGQIWLEGDHYKWRALRSAGVDESLITGKETSDYEKYMAWANTVPKTLGNPLYHWTHLELRRPFGITGTLFGPDTAESIWTQCNEKLATPAFSARGIMQQMNVRMVGTTDDPIDSLEYHRQIAADDSIDIEVAPSWRPDKVFKIELDGFVDYLRKLEAAADVSITRFDDLRQALTRRLDHFAACGCRASDHGIETLRFAPVPDDAQLDAILGKRLAGETLSELEIAQFTTAVLVWLGRQYAARGWVMQLHIGAIRNNNTRMFRLLGPDTGFDSIGDNNISWALSRLLDSMDVTNELPKTILYCLNPRDNEVLATMIGNFQGPGIAGKVQFGSGWWFNDQKDGMLRQLEQLSQMGLLSQFVGMLTDSRSFLSYTRHEYFRRILCNLLGQWAQDGEIPDDEAMLSRMVQDICFNNAQRYFTIK,not soluble
2,MATKARVMYDFAAEPGNNELTVNEGEIITITNPDVGGGWLEGRNIKGERGLVPTDYVEILPSDGKDQFSCGNSVADQAFLDSLSASTAQASSSAASNNHQVGSGNDPWSAWSASKSGNWESSEGWGAQPEGAGAQRNTNTPNNWDTAFGHPQAYQGPATGDDDDWDEDWDGPKSSSYFKDSESADAGGAQRGNSRASSSSMKIPLNKFPGFAKPGTEQYLLAKQLAKPKEKIPIIVGDYGPMWVYPTSTFDCVVADPRKGSKMYGLKSYIEYQLTPTNTNRSVNHRYKHFDWLYERLLVKFGSAIPIPSLPDKQVTGRFEEEFIKMRMERLQAWMTRMCRHPVISESEVFQQFLNFRDEKEWKTGKRKAERDELAGVMIFSTMEPEAPDLDLVEIEQKCEAVGKFTKAMDDGVKELLTVGQEHWKRCTGPLPKEYQKIGKALQSLATVFSSSGYQGETDLNDAITEAGKTYEEIASLVAEQPKKDLHFLMECNHEYKGFLGCFPDIIGTHKGAIEKVKESDKLVATSKITLQDKQNMVKRVSIMSYALQAEMNHFHSNRIYDYNSVIRLYLEQQVQFYETIAEKLRQALSRFPVM,soluble
3,MATKFNRILVGVDDSADALLAFDYAIHQAKQDGAELVIISILENDEMNVYQALSKDYIHGERQELEQHILKYQKQAQAAGVTKVHAMIAEGEPGETIVKEVIPHVQPDLLIIGSLAKKGIAKHFGSQAAYMAKYAPISVLVIR,not soluble
4,MATNESLKEQLAKRNGRKPAANGNGEPITLKALLASPKVKKRFEEVLDKRAPQFMTSIINLYSNDSGLQKCDPMTVISSAMVAASLDLPIDKNLGYAWIVPYYDRKTKSYRAQFQLGYKGYIQLALRSGQYRYINAIPVRKGELIKWDPLTEEIEIDFEARESDEVIGYAAFFELLNGFRKTVYWRKEDVEAHRQKYSKSGFGWENDWDAMALKTVIKSLLSRWGILSVEMQKAVIEDDEERLNPPADNVVEIEPEKPEVPENDEPVFELPLDVEVEVPFEEDEKDGDDQEG,not soluble
5,MATQRAHRAETPAHPNRLWIWEKHVYLDEFRRSWLPVVIKSNEKFQVILRQEDVTLGEAMSPSQLVPYELPLMWQLYPKDRYRSADSMYWQILYHIKFRDVEDMLLELIDSESNDE,soluble
6,MATSKILLYYAFTPLSDPKAVQLWQRELCESLNLRGRILISTHGINGTVGGDIDDCKAYIKKTREYPGFNRMQFKWSEGGAEDFPKLSVKVRDEIVAFGAPDELKVDENGVVGGGVHLKPQQVNELVEARGDEVVFFDGRNAMEAQIGKFKDAVVPDVETTHDFIAEIESGKYDDLKDKPVVTYCTGGIRCEILSSLMINRGFKEVYQIDGGIVRYGEQFGNKGLWEGSLYVFDKRMHMEFGEDYKEVGHCIHCDTPTNKFEHCLNEDDCRELVLMCPDCFANVETRHCKRERCAAIAADFAEQGIDPLVTS,not soluble
7,MATSSSAFDDELPMEEGMPELLDDEDVPSTLPSLLEQNLDTAPKGDEFKLVKRKRKSGNAIDVVMEDVSQVDEDATADTADDSTGPKSSKRTKGVKGESRVVPVPKHRYTPLKDNWVNIFTPIVKNLGLQVRFNLKKRQVEIRNPVDREDTTDLQKATDFVRAFILGFEVNDAIALIRLDHLFLETFEVADVKHSLKGDHVSRAIGRIAGKDGRTKLVIENTTKTRIVVANTKIHILGAYQNLKLARNAVCSLILGSNPSKVYGSLRNMASRGAERL,not soluble
8,MATTAQKIKEVEDEMAKTQKNKATAKHLGMLKAKLAKLKRELITPTGGGGGGGLGFDVARTGIGTVGFIGFPSVGKSTLMTQLTGTRSEAAAYEFTTLTTVPGVLQYNGAKIQILDLPGIIEGAKDGRGRGKQVITVARTCNLIFIVLDVLKPMSHKRIIEEELEGFGIRLNKEPPNIVFKKKERGGINITNTVPLTHIDLDEIRAVCSEYRVNSADIAFRCDATIDDLIDVLEGNRVYIPALYVLNKIDSISIEELDLIDRIPNAVPICGNRGWNIDELKETMWDYLNLVRVYTRPRGLEPDYSEPVILRTGHSTVEDFCNNIHSSIKSQFKHAYVWGKSVPYPGMRVGLSHVLLDEDVVTIVKK,not soluble
9,MATTTPERVMQETMDYHALNAMLNLYDKAGHIQFDKDQQAIDAFFATHVRPHSVTFASQHERLGTLVREGYYDDAVLARYDRAFVLRLFEHAHASGFRFQTFLGAWKFYTSYTLKTFDGKRYLEHFEDRVTMVALTLAQGDETLATQLTDEMLSGRFQPATPTFLNCGKQQRGELVSCFLLRIEDNMESIGRAVNSALQLSKRGGGVAFLLSNLREAGAPIKRIENQSSGVIPVMKMLEDAFSYANQLGARQGAGAVYLHAHHPDILRFLDTKRENADEKIRIKTLSLGVVIPDITFRLAKENAQMALFSPYDIQRRYGKPFGDIAISERYDELIADPHVRKTYINARDFFQTLAEIQFESGYPYIMFEDTVNRANPIAGRINMSNLCSEILQVNSASRYDDNLDYTHIGHDISCNLGSLNIAHVMDSPDIGRTVETAIRGLTAVSDMSHIRSVPSIAAGNAASHAIGLGQMNLHGYLAREGIAYGSPEALDFTNLYFYTITWHAVHTSMRLARERGKTFAGFAQSRYASGDYFTQYLQDDWQPKTAKVRALFARSGITLPTREMWLKLRDDVMRYGIYNQNLQAVPPTGSISYINHATSSIHPIVAKIEIRKEGKTGRVYYPAPFMTNENLDMYQDAYDIGPEKIIDTYAEATRHVDQGLSLTLFFPDTATTRDINKAQIYAWRKGIKSLYYIRLRQLALEGTEIEGCVSCAL,soluble
10,MATVSTNEFKGGLKIMLDNEPCVILENEYVKPGKGQAFNRVRIRKLLTGKVLEKTFKSGDTAEVADVVDIDLDYLYNDGEFYHFMNNSTFEQLAADAKAVGENAKWLVENNTCMLTLWNGNPIAVTPPNFVELEVTETDPGVKGDTQGTGGKPATLSTGAVVRVPLFVQIGEVIKVDTRSAEYVGRVK,soluble
11,MAVASTSTSDGMLTLDLIQEEDPSPEEPTSCAESFRVDLDKSVAQLAGSRRRADSDRIQPSADRASSLSRPWEKTDKGATYTPQAPKKLTPTEKGRCASLEEILSQRDAASARTLQLRAEEPPTPALPNPGQLSRIQDLVARKLEETQELLAEVQGLGDGKRKAKDPPRSPPDSESEQLLLETERLLGEASSNWSQAKRVLQEVRELRDLYRQMDLQTPDSHLRQTTPHSQYRKSLM,soluble
12,MAVCGLGSRLGLGSRLGLRGCFGAARLLYPRFQSRGPQGVEDGDRPQPSSKTPRIPKIYTKTGDKGFSSTFTGERRPKDDQVFEAVGTTDELSSAIGFALELVTEKGHTFAEELQKIQCTLQDVGSALATPCSSAREAHLKYTTFKAGPILELEQWIDKYTSQLPPLTAFILPSGGKISSALHFCRAVCRRAERRVVPLVQMGETDANVAKFLNRLSDYLFTLARYAAMKEGNQEKIYMKNDPSAESEGL,not soluble
13,MAVKQPVPKDPAKVERIMHAAMHTFAVSGYRDAKTDVIASAATVSKGLLFHYYGSKQRLYLATVQLATDTIIATINQQVFDVPDDLVTLMVRSARYKAAFGKDHPDEMKVLIDAYGALERLPVKIQAQMKILYTKSMTISREMISQVLDKMTLRADVDRDATIALIMGVYNQIFMEFQTYMRENHQVESMADIEWVVSRAKTYMGILEHGFMAADLDDQQ,not soluble
14,MAVLYKSFQSVLEDKNHKKMFHPRVIYTANISTSQIAKEIAAYSSLSPGDVKNTLDNLVTVMGQHLQASESVSLDGFGTFRMVMKSNGKGVETSEEVSAAQASLTVRFLPNFTKNPDRTTATRSLVTGAKCVRFDRTDTPASGSGNTNKPGGGDGGEGGGEEAPDPTV,not soluble
15,MAVQFEFYKNPVQGEEEGETSYHPRVVNFQHVTTQRLAVEIHSATTFGKAEVEAMLMELSRCMGNHLREGQRVHLDGVGYFQITLQATEPIHSMAAHADKVKFKSVSFLADRDLKGELIGMHAQRSKYKPHSATLSQEEIDKKLTGYFATHTVLTRSDMQSLCQFTHSMAARHIRRLKEEGSLQNIGIRTQPIYVPCPGHYGK,not soluble
16,MAWYEGAFFYQIFPDRFFRAGPPGRPAPAGPFEPWEAPPTLRGFKGGTLWGVAEKLPYLLDLGVEAIYLNPVFASTANHRYHTVDYFQVDPILGGNEALRHLLEVAHAHGVRVILDGVFNHTGRGFFAFQHLMENGEQSPYRDWYHVKGFPLKAYTAHPNYEAWWGNPELPKLKVETPAVREYLLAVAEHWIRFGVDGWRLDVPNEIPDPTFWREFRQRVKGANPEAYIVGEIWEEADFWLQGDMFDAVMNYPLARAVLGFVGGEALDRDLAAQTGLGRIEPLQALAFSHRLEDLFGRYRPEVVRAQMNLLTSHDTPRLLSLMRGSVERARLALALLFLLPGNPTVYYGEEVGMAGGKDPENRGGMVWEEARWQKDLRETVKRLARLRKEHPALRTAPYLRIYAQDGHLAFARGPYLAVVNASPHPFRQDFPLHGVFPRGGRAVDLLSGEVCTPQGGRLCGPVLPPFSLALWREA,soluble
17,MAYDLWYWDGIPGRGEFVRLALEAGKIPYRDRAREPGEDMLADMRRRRDTAPFAPPYLVADGMTIAQTANILLFLGVEHGLAPPDRAGRLWVNQLQLTIADLTAEAHDVHHPVAAGLYYEDQQDVALRRAADFRETRMPKFMQYFEQALDRPGGWLTDMGRWSYADLSLYHVVEGLLHAFPRRMRTLMHRYPRLMTLHARVAELPELRGYLASDRRLPFGDGIFRHYPELDGA,not soluble
18,MAYSKIRQPKLSDVIEQQLEFLILEGTLRPGEKLPPERELAKQFDVSRPSLREAIQRLEAKGLLLRRQGGGTFVQSSLWQSFSDPLVELLSDHPESQFDLLETRHALEGIAAYYAALRSTDEDKDRIRELHHAIELAQESGDLDAESEAVLQYQIAVTEAAHNVVLLHLLRCMEPMLAQNVRQNFELLYARREMLPLVSTHRTRIFEAIMAGKPEEAREASHRHLAFIEEIMLDRSREESRRERALRRLEQRKN,not soluble
19,MAYWLMKSEPDEFSISDLQRLGKARWDGVRNYQARNFLRTMAEGDEFFFYHSSCPEPGIAGIGKIVKTAYPDPTALDPDSHYHDAKATTEKNPWSALDIGFVDIFKNVLGLGYLKQQSQLEQLPLVQKGSRLSVMPVTAEQWAAILALRLEHHHHHH,soluble
20,MCEIFAKQPQDNYQFITRSIRIDGHATSVKLESSFWTILEEIASAQDMTVPKFISTVYQEALEYNGEVNNFASLLRCACLTYARQPENTLHQALAQLN,not soluble
21,MCFWPVWNGKHCPHSTGMPATLPGHRKPTFSWPVSISVMKMPDTHTMVATVSRRILPGKPRQCFSLAVLILPLLEHGGYAITELTVTRRNTCGYSFVSGCPTVFSSRDLVGSGEEVRQARDTFLYINTDPTQGWIHYEPAAFSAGAQNKHLPMASLTGSGKHPAAARLNPVSRGPQFITVSLIIALLGTAWYGWQYYERWQTEKAAQAAVARQATEERITPPWPGLPETDAFIRGCADIWTSLPLSAAGWRYSLAECSTDGGSGNLRASYTNTAGATVTDFIRRISDMTDSRPFIVMPEGKTGGIGLPVTFRLSENAVTVDALPETAVLQERLTSLAQSMQLKLDWQEVNNSVTDENGQIIQPPWKEYDLQIQTTLPAHHLAERLKEPSVRFISVTRQLENGRFHYQFTGKYYARLEHHHHHH,not soluble
